The target of the experiment is CD22 (human) (UniProt P20273). As to the kind of experiment: cell-based or functional assay.

The substance “Anti-CD22 mAb-MMAE8 (Inotuzumab ADC) (antibody)” yielded an IC50 (nM), XTT viability, RL cells, 72 h of 0.26 nM and an IC50 (nM), XTT viability, Ramos cells, 72 h of 0.04 nM.

Take “Anti-CD22 mAb-LL37-MMAE8 (Inotuzumab ADC with LL37) (antibody)”: the IC50 (nM), XTT viability, RL cells, 72 h is 0.235 nM and the IC50 (nM), XTT viability, Ramos cells, 72 h amounted to 0.035 nM.

(Values after patent US20230227547A1, “ANTIBODY-PAYLOAD CONJUGATES WITH ENHANCED DELIVERY DOMAIN AND USES THEREOF” (IPROGEN BIOTECH INC., priority 2019, published 2023).)
